Target: T1, clusterin (Homo sapiens, UniProt P10909)
T1 construct: from tissue; host or cells: formalin-fixed, paraffin-embedded xenograft tumours of Aspc-1, BxPC-3, PANC-1 and MiaPaCa-2 cells grown in SCID mice
Experiment: immunohistochemistry on tumors derived from human pancreatic cancer cell lines
Format: binding
Conditions: 5 μg/ml, 1 h at room temperature
Method: FIG. 11. Clusterin is expressed in human pancreatic tumors. Tumors derived from pancreatic cancer cell lines (as indicated) were grown in SCID mice, harvested, fixed in formalin, sections and examined using immunohistochemistry with h16B5. Positive staining was visualized by standard methods using a HRP-conjugated secondary antibody. The negative control was performed under identical conditions with an isotype control antibody.
Tumors derived from 4 different human pancreatic cell lines were obtained which were fixed in formalin, embedded in paraffin, and section on glass slides. Immunohistochemistry was conducted with h16B5 antibody to determine if tumors derived from this cancer indication expressed clusterin. The tumors were derived from Aspc-1, BxPC-3, PANC-1, and MiaPaCa-2 all of which were derived from pancreatic cancer patients (ATCC, Manassas, Va.). Paraffin-embedded epithelial pancreatic tumor samples were placed on glass slides and fixed for 15 min at 50° C. Deparaffinization was conducted by treating 2× with xylene followed by dehydration in successive 5 min washes in 100%, 80%, and 70% ethanol. The slides were washed 2× in PBS for 5 min and treated with antigen retrieval solution (citrate-EDTA) to unmask the antigen. […] H16B5-reactive clusterin was detected by incubating with biotin-conjugated human anti-kappa followed by streptavidin-HRP tertiary antibody. […]

T1 sequence (P10909 23-449): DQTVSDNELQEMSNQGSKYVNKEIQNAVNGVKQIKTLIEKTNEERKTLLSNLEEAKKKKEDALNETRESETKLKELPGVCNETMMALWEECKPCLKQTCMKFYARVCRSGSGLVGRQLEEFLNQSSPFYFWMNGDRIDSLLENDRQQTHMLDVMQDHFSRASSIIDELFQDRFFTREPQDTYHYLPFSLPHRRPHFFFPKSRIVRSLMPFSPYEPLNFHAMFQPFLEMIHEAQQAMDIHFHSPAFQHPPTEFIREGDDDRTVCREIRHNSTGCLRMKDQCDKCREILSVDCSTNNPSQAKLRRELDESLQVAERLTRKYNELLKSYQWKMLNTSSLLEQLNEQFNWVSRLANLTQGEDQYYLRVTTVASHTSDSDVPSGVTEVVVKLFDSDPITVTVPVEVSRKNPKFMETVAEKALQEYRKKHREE

With “h16B5: humanized anti-clusterin IgG2 antibody, heavy chain SEQ ID NO.:9 and light chain SEQ ID NO.:10” the “staining for clusterin expression in Aspc-1, BxPC-3, PANC-1 and MiaPaCa-2 derived tumors” value was “stained positive”.
